Reference: US20160000910A1

Columns and labels:
[1] = target: Aβ1-42 peptide fraction enriched in oligomers (high molecular weight fraction from SEC); assay: ELISA on coated fraction; antibody dilution 1:16 (starting dilution 0.5 µg/ml); assay 1
[2] = target: Aβ1-42 peptide fraction consisting primarily of monomers (LMW monomer fraction from SEC); assay: as above
[3] = target: Aβ1-42 peptide fraction enriched in oligomers (high molecular weight fraction from SEC); assay: ELISA on coated fraction; antibody dilution 1:16 (starting dilution 0.5 µg/ml); assay 2
[4] = target: Aβ1-42 peptide fraction consisting primarily of monomers (LMW monomer fraction from SEC); assay: as above
[5] = target: Aβ1-42 peptide fraction enriched in oligomers (high molecular weight fraction from SEC); assay: ELISA on coated fraction; antibody dilution 1:64 (starting dilution 0.5 µg/ml); assay 2
[6] = target: Aβ1-42 peptide fraction consisting primarily of monomers (LMW monomer fraction from SEC); assay: as above
[7] = target: Aβ1-42 peptide fraction enriched in oligomers (high molecular weight fraction from SEC); assay: ELISA on coated fraction; antibody dilution 1:4 (starting dilution 0.5 µg/ml); mean of 3 assays
[8] = target: Aβ1-42 peptide fraction consisting primarily of monomers (LMW monomer fraction from SEC); assay: as above
[9] = target: Aβ1-42 peptide fraction enriched in oligomers (high molecular weight fraction from SEC); assay: ELISA on coated fraction; antibody dilution 1:16 (starting dilution 0.5 µg/ml); assay 3
[10] = target: Aβ1-42 peptide fraction consisting primarily of monomers (LMW monomer fraction from SEC); assay: as above
[11] = target: Aβ1-42 peptide fraction enriched in oligomers (high molecular weight fraction from SEC); assay: ELISA on coated fraction; antibody dilution 1:64 (starting dilution 0.5 µg/ml); assay 3
[12] = target: Aβ1-42 peptide fraction consisting primarily of monomers (LMW monomer fraction from SEC); assay: as above
[13] = target: Aβ1-42 peptide fraction enriched in oligomers (high molecular weight fraction from SEC); assay: ELISA on coated fraction; antibody dilution 1:32 (starting dilution 0.5 µg/ml); assay 1
[14] = target: Aβ1-42 peptide fraction consisting primarily of monomers (LMW monomer fraction from SEC); assay: as above
[15] = target: Aβ1-42 peptide fraction enriched in oligomers (high molecular weight fraction from SEC); assay: ELISA on coated fraction; antibody dilution 1:1 (starting dilution 0.5 µg/ml); assay 1
[16] = target: Aβ1-42 peptide fraction consisting primarily of monomers (LMW monomer fraction from SEC); assay: as above
[17] = target: Aβ1-42 peptide fraction enriched in oligomers (high molecular weight fraction from SEC); assay: ELISA on coated fraction; antibody dilution 1:4 (starting dilution 0.5 µg/ml); assay 2
[18] = target: Aβ1-42 peptide fraction consisting primarily of monomers (LMW monomer fraction from SEC); assay: as above
[19] = target: Aβ1-42 peptide fraction enriched in oligomers (high molecular weight fraction from SEC); assay: ELISA on coated fraction; antibody dilution 1:128 (starting dilution 0.5 µg/ml); assay 3
[20] = target: Aβ1-42 peptide fraction consisting primarily of monomers (LMW monomer fraction from SEC); assay: as above
[21] = target: Aβ1-42 peptide fraction enriched in oligomers (high molecular weight fraction from SEC); assay: ELISA on coated fraction; antibody dilution 1:128 (starting dilution 0.5 µg/ml); assay 2
[22] = target: Aβ1-42 peptide fraction consisting primarily of monomers (LMW monomer fraction from SEC); assay: as above
[23] = target: Aβ1-42 peptide fraction enriched in oligomers (high molecular weight fraction from SEC); assay: ELISA on coated fraction; antibody dilution 1:16 (starting dilution 0.5 µg/ml); mean of 3 assays
[24] = target: Aβ1-42 peptide fraction consisting primarily of monomers (LMW monomer fraction from SEC); assay: as above
[25] = target: Aβ1-42 peptide fraction enriched in oligomers (high molecular weight fraction from SEC); assay: ELISA on coated fraction; antibody dilution 1:64 (starting dilution 0.5 µg/ml); assay 1
[26] = target: Aβ1-42 peptide fraction consisting primarily of monomers (LMW monomer fraction from SEC); assay: as above
[27] = target: Aβ1-42 peptide fraction enriched in oligomers (high molecular weight fraction from SEC); assay: ELISA on coated fraction; antibody dilution 1:1 (starting dilution 0.5 µg/ml); mean of 3 assays
[28] = target: Aβ1-42 peptide fraction consisting primarily of monomers (LMW monomer fraction from SEC); assay: as above
[29] = target: Aβ1-42 peptide fraction enriched in oligomers (high molecular weight fraction from SEC); assay: ELISA on coated fraction; antibody dilution 1:2 (starting dilution 0.5 µg/ml); mean of 3 assays
[30] = target: Aβ1-42 peptide fraction consisting primarily of monomers (LMW monomer fraction from SEC); assay: as above
[31] = target: Aβ1-42 peptide fraction enriched in oligomers (high molecular weight fraction from SEC); assay: ELISA on coated fraction; antibody dilution 1:32 (starting dilution 0.5 µg/ml); assay 3
[32] = target: Aβ1-42 peptide fraction consisting primarily of monomers (LMW monomer fraction from SEC); assay: as above
[33] = target: Aβ1-42 peptide fraction enriched in oligomers (high molecular weight fraction from SEC); assay: ELISA on coated fraction; antibody dilution 1:8 (starting dilution 0.5 µg/ml); assay 2
[34] = target: Aβ1-42 peptide fraction enriched in oligomers (high molecular weight fraction from SEC); assay: ELISA on coated fraction; antibody dilution 1:8 (starting dilution 0.5 µg/ml); assay 3
[35] = target: Aβ1-42 peptide fraction enriched in oligomers (high molecular weight fraction from SEC); assay: ELISA on coated fraction; antibody dilution 1:8 (starting dilution 0.5 µg/ml); assay 1
[36] = target: Aβ1-42 peptide fraction consisting primarily of monomers (LMW monomer fraction from SEC); assay: as above
[37] = target: Aβ1-42 peptide fraction enriched in oligomers (high molecular weight fraction from SEC); assay: ELISA on coated fraction; antibody dilution 1:2 (starting dilution 0.5 µg/ml); assay 3
[38] = target: Aβ1-42 peptide fraction consisting primarily of monomers (LMW monomer fraction from SEC); assay: as above
[39] = target: Aβ1-42 peptide fraction enriched in oligomers (high molecular weight fraction from SEC); assay: ELISA on coated fraction; antibody dilution 1:2 (starting dilution 0.5 µg/ml); assay 2
[40] = target: Aβ1-42 peptide fraction consisting primarily of monomers (LMW monomer fraction from SEC); assay: as above
[41] = target: Aβ1-42 peptide fraction enriched in oligomers (high molecular weight fraction from SEC); assay: ELISA on coated fraction; antibody dilution 1:8 (starting dilution 0.5 µg/ml); mean of 3 assays
[42] = target: Aβ1-42 peptide fraction enriched in oligomers (high molecular weight fraction from SEC); assay: ELISA on coated fraction; antibody dilution 1:4 (starting dilution 0.5 µg/ml); assay 1
[43] = target: Aβ1-42 peptide fraction enriched in oligomers (high molecular weight fraction from SEC); assay: ELISA on coated fraction; antibody dilution 1:128 (starting dilution 0.5 µg/ml); assay 1
[44] = target: Aβ1-42 peptide fraction consisting primarily of monomers (LMW monomer fraction from SEC); assay: as above
[45] = target: Aβ1-42 peptide fraction enriched in oligomers (high molecular weight fraction from SEC); assay: ELISA on coated fraction; antibody dilution 1:2 (starting dilution 0.5 µg/ml); assay 1
[46] = target: Aβ1-42 peptide fraction consisting primarily of monomers (LMW monomer fraction from SEC); assay: as above
[47] = target: Aβ1-42 peptide fraction enriched in oligomers (high molecular weight fraction from SEC); assay: ELISA on coated fraction; antibody dilution 1:64 (starting dilution 0.5 µg/ml); mean of 3 assays
[48] = target: Aβ1-42 peptide fraction consisting primarily of monomers (LMW monomer fraction from SEC); assay: as above
[49] = target: Aβ1-42 peptide fraction enriched in oligomers (high molecular weight fraction from SEC); assay: ELISA on coated fraction; antibody dilution 1:4 (starting dilution 0.5 µg/ml); assay 3
[50] = target: Aβ1-42 peptide fraction consisting primarily of monomers (LMW monomer fraction from SEC); assay: as above
[51] = target: Aβ1-42 peptide fraction enriched in oligomers (high molecular weight fraction from SEC); assay: ELISA on coated fraction; antibody dilution 1:128 (starting dilution 0.5 µg/ml); mean of 3 assays
[52] = target: Aβ1-42 peptide fraction consisting primarily of monomers (LMW monomer fraction from SEC); assay: as above
[53] = target: Aβ1-42 peptide fraction enriched in oligomers (high molecular weight fraction from SEC); assay: ELISA on coated fraction; antibody dilution 1:1 (starting dilution 0.5 µg/ml); assay 3
[54] = target: Aβ1-42 peptide fraction consisting primarily of monomers (LMW monomer fraction from SEC); assay: as above
[55] = target: Aβ1-42 peptide fraction enriched in oligomers (high molecular weight fraction from SEC); assay: ELISA on coated fraction; antibody dilution 1:1 (starting dilution 0.5 µg/ml); assay 2
[56] = target: Aβ1-42 peptide fraction consisting primarily of monomers (LMW monomer fraction from SEC); assay: as above
[57] = target: Aβ1-42 peptide fraction enriched in oligomers (high molecular weight fraction from SEC); assay: ELISA on coated fraction; antibody dilution 1:32 (starting dilution 0.5 µg/ml); mean of 3 assays
[58] = target: Aβ1-42 peptide fraction consisting primarily of monomers (LMW monomer fraction from SEC); assay: as above
[59] = target: Aβ1-42 peptide fraction enriched in oligomers (high molecular weight fraction from SEC); assay: ELISA on coated fraction; antibody dilution 1:32 (starting dilution 0.5 µg/ml); assay 2
[60] = target: Aβ1-42 peptide fraction consisting primarily of monomers (LMW monomer fraction from SEC); assay: as above

In the case of control antibody 6E10, the O.D. (O.D. at 405 nm) [1] was 1.78, the O.D. (O.D. at 405 nm) [2] was 1.78 and the O.D. (O.D. at 405 nm) [3] was 1.92. The O.D. (O.D. at 405 nm) [4] was 1.94, the O.D. (O.D. at 405 nm) [5] was 0.88 and the O.D. (O.D. at 405 nm) [6] was 0.94. For the same substance, the O.D. (mean) (O.D. at 405 nm) [7] was 3.37, the O.D. (mean) (O.D. at 405 nm) [8] was 3.27 and the O.D. (O.D. at 405 nm) [9] was 2.07. It also gave an O.D. (O.D. at 405 nm) [10] of 2.23, an O.D. (O.D. at 405 nm) [11] of 0.95 and an O.D. (O.D. at 405 nm) [12] of 1.08. It also gave an O.D. (O.D. at 405 nm) [13] of 1.27, an O.D. (O.D. at 405 nm) [14] of 1.18 and an O.D. (O.D. at 405 nm) [15] of 3.36. For the same substance, the O.D. (O.D. at 405 nm) [16] was 3.67, the O.D. (O.D. at 405 nm) [17] was 3.37 and the O.D. (O.D. at 405 nm) [18] was 3.29. The O.D. (O.D. at 405 nm) [19] was 0.66, the O.D. (O.D. at 405 nm) [20] was 0.86 and the O.D. (O.D. at 405 nm) [21] was 0.61. For the same substance, the O.D. (O.D. at 405 nm) [22] was 0.75, the O.D. (mean) (O.D. at 405 nm) [23] was 1.92 and the O.D. (mean) (O.D. at 405 nm) [24] was 1.98. The O.D. (O.D. at 405 nm) [25] was 0.93, the O.D. (O.D. at 405 nm) [26] was 0.81 and the O.D. (mean) (O.D. at 405 nm) [27] was 3.64. For the same substance, the O.D. (mean) (O.D. at 405 nm) [28] was 3.83, the O.D. (mean) (O.D. at 405 nm) [29] was 3.59 and the O.D. (mean) (O.D. at 405 nm) [30] was 3.59. For the same substance, the O.D. (O.D. at 405 nm) [31] was 1.4, the O.D. (O.D. at 405 nm) [32] was 1.54 and the O.D. (O.D. at 405 nm) [33] was 2.99. For the same substance, the O.D. (O.D. at 405 nm) [34] was 3.23, the O.D. (O.D. at 405 nm) [35] was 2.73 and the O.D. (O.D. at 405 nm) [36] was 2.67. It also gave an O.D. (O.D. at 405 nm) [37] of 3.83, an O.D. (O.D. at 405 nm) [38] of 4 and an O.D. (O.D. at 405 nm) [39] of 3.55. It also gave an O.D. (O.D. at 405 nm) [40] of 3.48, an O.D. (mean) (O.D. at 405 nm) [41] of 2.98 and an O.D. (O.D. at 405 nm) [42] of 3.1. It also gave an O.D. (O.D. at 405 nm) [43] of 0.62, an O.D. (O.D. at 405 nm) [44] of 0.64 and an O.D. (O.D. at 405 nm) [45] of 3.39. It also gave an O.D. (O.D. at 405 nm) [46] of 3.3, an O.D. (mean) (O.D. at 405 nm) [47] of 0.92 and an O.D. (mean) (O.D. at 405 nm) [48] of 0.94. The O.D. (O.D. at 405 nm) [49] was 3.64, the O.D. (O.D. at 405 nm) [50] was 3.52 and the O.D. (mean) (O.D. at 405 nm) [51] was 0.63. It also gave an O.D. (mean) (O.D. at 405 nm) [52] of 0.75, an O.D. (O.D. at 405 nm) [53] of 3.89 and an O.D. (O.D. at 405 nm) [54] of 4.04. For the same substance, the O.D. (O.D. at 405 nm) [55] was 3.67, the O.D. (O.D. at 405 nm) [56] was 3.77 and the O.D. (mean) (O.D. at 405 nm) [57] was 1.32. For the same substance, the O.D. (mean) (O.D. at 405 nm) [58] was 1.36, the O.D. (O.D. at 405 nm) [59] was 1.3 and the O.D. (O.D. at 405 nm) [60] was 1.34.
